Source: the nanobody polyreactivity screen of Harvey et al. (2022)

Assay: yeast display, Sf9 membrane polyspecificity reagent, FACS + sequencing; frameworks hold sequencing errors
In short: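 In a synthetic yeast display library (Saccharomyces cerevisiae BJ5465), nanobody expression was induced with galactose for 36–48 hours. FACS gates were set low and high (top ~1%) using anti-HA fluorescence for expression and streptavidin fluorescence for binding of the Sf9 membrane reagent. Each polyreactivity label is drawn from the gate of origin.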

Sequence | polyreactivity (PSR sort gate)
QVQLVESGGGLVQAGGSLRLSCAACGSIFIGNAMGWYRQAPGKERELVAVISKGGGRTYYADSVKGRFTISRDNAKNTVYLKMNSLKPEDTAVYFCNTRNPESGDYWGQGTQVTVSS | high polyreactivity
QVQLVESGGGLVQAGGSLRLSCAASGFIFNSYAMGGYRQAPGKERELVAAISRRGSSTYYADSVKGRFTISRDNAKNTVYLQMKSLKPEDTAVYYCAKRDLSTSWYLRDYWGQGTQVTVSS | high polyreactivity
QVQLVESGGGLVQAGGSLRFSCAASGRIFGGNTMGWYRQAPGKERELVATIRSGDSTYYADSVKGRFTISRDNAKNTVYLQMNSLKPEDTAVYYCGYDYWGQGTQVTVSS | low polyreactivity
QVQLVESGGGLVQAGGSLRLSCAASGFILVDYAMGWYRQAPGKERELVAAITYDGGSTYYADSVKGRFTISRDNAKNTVYLQMNSLKPEDTAVYYCAADYGYSQYILGQFRLEELDYWGQGTQVTVSS | low polyreactivity
QVQLVESGGGLVQAGGSLRLSCAASGRIFQKNAMGWNIQAPGKERELVAVISWSDGSTNYADSVKGRFTISRDNAKNTVYLQMNSLKPEDTAVYYCNAAPLEGTLYDSWGQGTQVTVSS | low polyreactivity
QVQIVESGGGLVQAGGSLRLSCAASGSTFSRYAMGWYRQAPGKERELVAVITKSGGRTYYADSVKGRFRISRDNAKNTVYLQKHSLKAEDTADYYCAAYPNKSQTADGYWGQGTQVTVSS | high polyreactivity
QVQLVESGGGLVQAGGSLRLSCAASGSTFRVYAMGGDRQAPGKERELVAAITYSGGSTYYADSVKGRFTISRDNAKNTVYLQMNSLKPVDTAVYYCAADGYYGGYNYWGQGTQVTVSS | low polyreactivity
QVQLVESGGGLVQAGGSLRLSCAASGSIFPWYAMGWYRQAPGKERELVAAITISGGSTHYADSEKGRFTISRDTAKNTVYLQLKSLKPEDTAVYYCAADFLPQSYNCYDYWGQGTQVTVSS | low polyreactivity
QVQLVESGGGLVQAGGSLRLSCAASGRTFRYNAMGWYRQAPGKERELVARITVIGDSTYYADSVKGRFTISRDNAKNTVYLQMNSLKPEDTAVYYCAAVSRRVSPYLSARDYWGQGTQVTVSS | high polyreactivity
QVQLVESGGGLVQAGGSLRLSCAASGLIFSVYAMGWYRQAPGKERELVAAISWSGSTYYADSVKGRFTISRDNAKNTVYLQMNSLKPEDTAVDYCAAEYDYDHFYWMDYWGQGTQVTVSS | high polyreactivity
QVQLVESGGGLVQAGGSLRLSCAASGFIFLAYAMGWYRQAPGKERELVAAISSGSSTSYADSVKGRFTISRDNAKNTVYLQMNSLKPEDTAVYYCNAVPSFANLTWESYDYWGQGTQVTVSS | low polyreactivity
QVQLVESGGGLVQAGGSLRLSCAASGSTFPIYAMGWYRQAPGKERELVAAITRSGGSTNYADSVKGRFTISRDNAKNTVYLQMNSLKPEDTAVYYCNRTRYRSFHYDYWGQGTQVTVSS | high polyreactivity
QGQLVESCGGLVQAGGSLRFICAASGSNFFSYAMGCYRQAPWKERELVASISRRGGTTYYADSVKGRFTISRDNAKNTVYLHMNSLKPDDTAVYYCAAKLLYGGRYGYWGQGTQVTVSS | high polyreactivity
QVQLVESGGGLVQAGGSLRLSCAASGRIIYGNAMGWYRQAPGKERELVAAITSGGSTNYADSVKGRFTISRDNAKNTVYLQMNSLKPEDTAVYYCNAVVYSPYRYEYWGQGTQVTVSS | low polyreactivity
QVQLVESGGGLVQAGGSLRLSCAASGRIFSSYAMGWYRQAPGKERELVAAISKSGGNTYYADSVKGRFTISRDNAKNTVYLQMNSLKPEDTAVYYCDAVAPYTLYFWLYYWGQGTHVTVSS | high polyreactivity
QVQLQESGGGLVQAGGSLRLSCAASGSIFKVVDMGLYRQEPAKEREFVATIGEGGNTYYADSVKGRFTISRDNAKNTVFLQMNSLKPEDTAVYFYAVVLGTSYRYTYWGQGTQVTVSS | low polyreactivity
QVQLVESGGGLVQAGGSLRLSCAASGSIFSVYAMGWYIQAPGKEREFVASISGGSGRTYYADSVKGRFTISRDNAKNTVYLQMNSLKPEDTAVYYCAAAYWAYDTGKMGYWGQGTQVTVSS | low polyreactivity
QVQLVESGGGLVQAGGSLRLSCAASGFIFEHYAMGWYRQAPVKERELVARISWRGGSTYYADSVKGRFTISRDNAKNTVYLQMNRLKPEDTAVYYCNALEVVYFGYYPSDYWGQGTQVTVSS | low polyreactivity
QVQLVESGGGLVQAGGSLRLSCAASGNTFRWYVMGWYRQAPGKERELVAAITSSGSTTYYADSVKGRFSISRDNAKNTVYLQMNSLKPEDTAVYYCAARNYGPYDYWGQGTQVTVSS | low polyreactivity
QVHLVESGGGLVQAGGSLRLSCAASGFPFADNAMGWNRQAPGKERELVAAISRRGGSTYYADSVKGRFTISRDNAKNTVYLQMNSLKAEDTAVYYCAALGNRYPYYYYYGSYYPVEYWGQGTQVTVSS | high polyreactivity
QVQLVESGGGLVQAGGSLRLICASSGLNFVVYAMGRSRPAPGKERELVAAISSGGGSTYYADSVKGRFTISRDNAKNSVYLQMNSQKPEDTEVYYCNAVDKLYYWRYDYWRQGTQVTVSS | low polyreactivity
QVQLVESGGGLVQAGGSLRLSCAAYGSILRSNAMGWYRQAPGKERELVAVISNDDSTYYADSVKGRFTISRDNAKNTVYLQMNSLKPEDTAVYYCNAVYYYFFRWNPIYDSWGQGTQVTVSS | low polyreactivity
QVHLVESGGGLVQSGGSLRLTCAASGRTFSQYAMGWYRQAPWKERDLVAAISWSGGSTYYADSVKGRFTFSRDNAKNTVYLEMNSLKPEDTAVYYCAAVGKGSARSSYQVLYDYWGQGTQVNVSS | low polyreactivity
QVQLVESGGGLVQAGGSLRLSCAASGRISKGYAMGWYRQAPGKERELVAAISWRTSSTYYADSVKGRFTISRDNAKNTVYLQMNSLKPEVTAVYYCAAETWLGSWRQVGMDYWGQGTQVTVSS | high polyreactivity
QVQLVDSGGGLVQAGGSLRIIRAASGSISGYNAMGWYRQAPGKERELVAAIYRSDGKDYADSVKGRFTISRDNAKNTVYLQMNSMIPEDTAVYYCIAVKWSVVGYVLGFYRDDYWGQGTQVTVSS | low polyreactivity
QVQLVESVGGLVQAGGSLRLSCAASGITFRRYAMGWYRQAPGKERELVATIRNSGGGTYYADSVKGRFTISRDNAKNTVYLQMNSLKPEDTAVYYCAAELYFTYYYWGQGTQVTVSS | high polyreactivity
QVQLVESGGGLVQAGGSLSLICAASGSTSYRYAMGWYRQAPGKERELVAGITRSGGSTYYADSVKGRFTISRDNAKNTVYLQMNSLKPEDTAVYYCAAYYSRQYVGYGYWGQGTQVTVSS | high polyreactivity
QVQLVESGGGLVQAGGSRRLSCAASGLTVHDNGMGWYRQAPGQEREVVAAISWSDGTTYYADSVKGRVSISRDNAKNTVYLQMNSLKPEDTAVFYCAAEAYYFWDLVDEDYWGQGTQVTVSS | high polyreactivity
QVQLVESGGGLVQAGGSLRLSCAASGSTFYKYAMGWYRQAPGKERELVAAITRSGGSTYYADSVKGRFTISRDNAKNTVYLQMNSLKPEDTAVYYCNADRKSRSKGVGYDYWGQGTQVTVSS | high polyreactivity
QVQLVESGGGLVQAGGSLRLSCAASGIIFSYYAMGWYRQAPGKERELVAAITWSVGSTDYADSVKGRFTISRDNAKNTVYLQMNSLKPEDTAVYYCAATITTLDWDDRYDYWGQGTQETVSS | low polyreactivity
